Results published in patent US20240115722A1 (RUTGERS THE STATE UNIVERSITY OF NEW JERSEY, published 2024).
Read-outs that look alike come from different tables or passages of the source.

What was measured:
[1] = molecular target: T1, recombinant human EphA5 (rhEphA5) antigen (human, UniProt P54756 25-573); assay: SPR multi-cycle kinetics (Biacore T200), purified IgG captured on anti-human IgG CM5 chip, recombinant EphA5 as analyte, 1:1 fit
T1 construct: also called human EphA5 (R and D systems, Cat. No. 3036-A5); recombinant EphA5
T1 sequence (P54756 25-573 limits assumed): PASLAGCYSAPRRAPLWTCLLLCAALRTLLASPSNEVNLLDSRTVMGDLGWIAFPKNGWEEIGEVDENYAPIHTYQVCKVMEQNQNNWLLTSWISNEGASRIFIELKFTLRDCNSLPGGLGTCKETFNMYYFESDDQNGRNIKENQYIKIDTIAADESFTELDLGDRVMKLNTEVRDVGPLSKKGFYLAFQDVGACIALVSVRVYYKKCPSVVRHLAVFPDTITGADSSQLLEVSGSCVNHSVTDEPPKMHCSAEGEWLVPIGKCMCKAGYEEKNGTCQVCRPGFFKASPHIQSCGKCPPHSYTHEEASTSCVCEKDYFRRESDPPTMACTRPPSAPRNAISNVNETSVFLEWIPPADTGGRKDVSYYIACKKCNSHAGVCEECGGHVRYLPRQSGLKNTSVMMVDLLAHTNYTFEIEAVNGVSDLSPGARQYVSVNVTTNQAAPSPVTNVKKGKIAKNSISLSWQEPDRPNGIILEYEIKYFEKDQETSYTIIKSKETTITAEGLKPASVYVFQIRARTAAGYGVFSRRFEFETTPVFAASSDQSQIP
Procedure: HBS-P+(GE Healthcare, Uppsala, Sweden), supplemented with 1% BSA w/v (Sigma, Dorset, UK) was used as running buffer as well as for ligand and analyte dilutions. Purified lead antibodies were diluted to 0.5 μg/mL in running buffer and at the start of each cycle, loaded onto Fc2, Fc3 and Fc4 of an anti-human IgG CM5 sensor chip (GE Healthcare, Little Chalfont, UK). […] The surface was then allowed to stabilize.
Multi-cycle kinetic data was obtained using recombinant EphA5 as the analytes injected at a flow rate of 30 μl/min to minimize any potential mass transfer effects. […] For each concentration, the association phases were monitored for 210 seconds and the dissociation phase was measured for 900 seconds. Regeneration of the sensor chip surface was conducted between cycles using two injections of 3 M MgCl2. Multiple repeats of a blank and of EphA5 were programmed into the kinetic run in order to check the stability of both the surface and analyte over the kinetic cycles.
The signal from the reference channel Fc1 (no IgG captured) was subtracted from that of Fc2, Fc3 and Fc4 to correct for bulk effect and differences in non-specific binding to a reference surface. The signal from each IgG blank run (IgG captured but no antigen) was subtracted to correct for differences in surface stability. The double referenced sensorgrams were fitted with the Langmuir (1:1) binding model where the closeness of fit of the data to the model is evaluated using the Chi square value which describes the deviation between the experimental and fitted (observed and expected) curves. The fitting algorithm seeks to minimize the Chi square value.

FCGR1A [2] = molecular target: T2, FCGR1A (human, UniProt P12314); assay: Membrane Proteome Array screen, human membrane protein clones expressed in cells, flow cytometry (Table E4: HEK-293T, antibody 20 µg/ml)
T2 construct: clone overexpressed in live cells from an expression plasmid; Labelled point above the threshold in the Membrane Proteome Array plots of both H4K3 and H5K3
T2 sequence (P12314 16-374 limits assumed): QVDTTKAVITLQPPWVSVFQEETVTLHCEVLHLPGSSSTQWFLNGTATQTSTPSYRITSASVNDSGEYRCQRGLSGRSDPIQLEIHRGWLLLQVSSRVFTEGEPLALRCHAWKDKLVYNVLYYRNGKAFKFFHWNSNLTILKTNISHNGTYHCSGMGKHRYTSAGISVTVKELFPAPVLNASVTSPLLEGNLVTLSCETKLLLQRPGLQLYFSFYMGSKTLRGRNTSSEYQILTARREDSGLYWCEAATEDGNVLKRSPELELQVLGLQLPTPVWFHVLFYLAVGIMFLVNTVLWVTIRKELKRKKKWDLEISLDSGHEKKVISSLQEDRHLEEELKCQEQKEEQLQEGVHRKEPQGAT

[3] = molecular target: T1, recombinant human EphA5 (rhEphA5) …; assay: SPR single-cycle kinetics (Biacore T200), IgG from HEK supernatant captured on anti-human IgG CM5 chip, rhEphA5 as analyte, 1:1 fit; design: Relative KD: reference not given here
Procedure: Kinetic analysis was carried out on a Biacore T200. Each antibody was captured on a CM5 chip coupled with an anti-human IgG using standard amine chemistry before increasing concentrations of antigen were injected and a single off-rate was determined.
Kinetic experiments were performed at 25° C. on a Biacore T200 running Biacore T200 Control software V2.0.1 and Evaluation software V3.0 (Cytiva, Uppsala, Sweden).
HBS-P+ (Cytiva, Uppsala, Sweden), supplemented with 1% BSA (Sigma, Dorset, UK) was used as running buffer as well as for ligand and analyte dilutions. Supernatants containing IgG were diluted in running buffer to 1 μg/mL. At the start of each cycle, antibodies were loaded onto Fc2, Fc3 and Fc4 of an anti-human IgG CM5 sensor chip (Cytiva, Little Chalfont, UK). Ig were captured at a flow rate of […] to give an immobilization level (RL) of ˜60 RU. The surface was then allowed to stabilize.

[4] = molecular target: T3, human EPH receptor A5 (EphA5) expressed on cells (human, UniProt P54756 25-1037); assay: flow cytometry on H460 (EphA5+) cells, starting assay concentration 10 µg/mL
T3 construct: Cell line (H460 stably expressing EphA5; HEK-293T transfected with EPHA5 clone or wild-type construct; lung cancer lines with endogenous or variable expression); also called cell-surface EphA5; wild-type target protein
T3 sequence (P54756 25-1037 limits assumed): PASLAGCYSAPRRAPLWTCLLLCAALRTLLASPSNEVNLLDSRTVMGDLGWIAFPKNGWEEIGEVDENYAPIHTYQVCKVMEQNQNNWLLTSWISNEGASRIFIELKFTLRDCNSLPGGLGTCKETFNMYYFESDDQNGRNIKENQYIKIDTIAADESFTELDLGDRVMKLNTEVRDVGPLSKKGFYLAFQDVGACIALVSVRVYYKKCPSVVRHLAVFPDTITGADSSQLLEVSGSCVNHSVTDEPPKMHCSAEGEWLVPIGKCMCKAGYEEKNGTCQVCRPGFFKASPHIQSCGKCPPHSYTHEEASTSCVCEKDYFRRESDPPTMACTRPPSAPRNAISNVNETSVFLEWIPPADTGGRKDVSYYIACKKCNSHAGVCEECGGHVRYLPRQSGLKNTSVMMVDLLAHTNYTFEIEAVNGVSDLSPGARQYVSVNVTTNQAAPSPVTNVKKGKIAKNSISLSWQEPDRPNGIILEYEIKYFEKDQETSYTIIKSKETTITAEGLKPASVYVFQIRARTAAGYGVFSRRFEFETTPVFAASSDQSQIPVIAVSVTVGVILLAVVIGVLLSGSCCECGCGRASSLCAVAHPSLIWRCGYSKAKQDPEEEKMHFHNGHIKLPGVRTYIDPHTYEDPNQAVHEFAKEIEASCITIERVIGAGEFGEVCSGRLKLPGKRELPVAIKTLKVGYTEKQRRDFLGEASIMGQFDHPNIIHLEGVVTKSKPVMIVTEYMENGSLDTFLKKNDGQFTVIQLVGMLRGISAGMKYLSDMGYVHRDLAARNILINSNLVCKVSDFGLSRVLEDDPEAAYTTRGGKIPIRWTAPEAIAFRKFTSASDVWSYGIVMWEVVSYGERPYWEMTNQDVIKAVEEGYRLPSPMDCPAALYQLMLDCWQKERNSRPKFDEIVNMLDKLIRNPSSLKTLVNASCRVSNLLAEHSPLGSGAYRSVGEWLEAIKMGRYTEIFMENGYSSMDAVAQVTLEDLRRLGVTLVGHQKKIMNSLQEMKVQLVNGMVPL
Procedure: Samples were prepared at a starting concentration of 10 μg/ml in FACS buffer and underwent a four-fold seven point serial dilution for testing with H460 cells and a three-fold three point serial dilution for the H226 cells. Cell pellets were resuspended in 100 μl of the serially diluted samples and incubated at 4° C. for 30 minutes. After the incubation, cells were pelleted, washed twice with 100 μl of FACS buffer and resuspended in either Alexa Fluor 647 anti-mouse or anti-human (Thermo Fisher) diluted to 5 μg/ml in FACS buffer. After incubation at 4° C. for 30 minutes, cells were pelleted, washed twice with 100 μl of FACS buffer and resuspended in 200 μl per well 1×BD CellFix solution (BD Pharmingen, Berkshire, UK). Median fluorescence intensity (MFI) was measured using an Attune NxT Flow Cytometer (Thermo Fisher, Loughborough, UK) and 10,000 gated events were acquired per sample. For data analysis, live cell populations were gated based on the forward and side scatter dot plot allowing the Alexa Fluor 647 MFI values to be measured in the RL1 channel.

[5] = molecular target: T1, recombinant human EphA5 (rhEphA5) …; assay: SPR (Biacore T200), IgG captured on anti-human IgG chip, rhEphA5 as analyte, 1:1 fit; table does not say single- or multi-cycle
FCGR1A [6] = molecular target: T2, FCGR1A; assay: Membrane Proteome Array screen, human membrane protein clones expressed in cells, flow cytometry (Table E4: HEK-293T, antibody 20 µg/ml); remark: listed apart in the source
[7] = molecular target: T3, human EPH receptor A5 (EphA5) expressed …; assay: flow cytometry on H460 (EphA5+) cells, goat anti-mouse Alexa Fluor 647 detection

Kd [1] | Relative KD [1] | koff [1] | binding result (FCGR1A [2]) | Kd [3] | Relative KD [3] | koff [3] | EC50 [4] | Max. Binding (MFI) [4] | Kd [5] | koff [5] | kon [5] | binding result (FCGR1A [6]) | EC50 (read off the curve) [7] | Binder
0.937 nM | 0.6 | 0.00139 s⁻¹ | binds | 1.04 nM | 0.78 | 0.00137 s⁻¹ | 0.018 µg/mL | 36700 MFI | – | – | – | – | – | VH4/VK3 humanized 11C12 antibody (antibody, human IgG1, kappa, Human IgG1/kappa; lead variant, tested as HEK supernatant and as purified protein; also called H4K3; EPHA5 H4K3) heavy: not shown light: DIVMTQSPDSLAVSLGERATINCKASQSVDYDGDSYMNWYQQKPGKAPKLLIYGASNLESGIPDRFSGSGSGTDFTLTISRLEPEDAAVYYCQQSNEDPFTFGQGTKLEIKRTVAAPSVFIFPPSDEQLKSGTASVVCLLNNFYPREAKVQWKVDNALQSGNSQESVTEQDSKDSTYSLSSTLTLSKADYEKHKVYACEVTHQGLSSPVTKSFNRGEC
– | – | – | – | 1.03 nM | 0.77 | 0.0014 s⁻¹ | 0.019 µg/mL | 36500 MFI | 1.11 nM | 0.00135 s⁻¹ | 1.21e+06 M⁻¹ s⁻¹ | binds | – | VH5/VK3 humanized 11C12 antibody (antibody, human IgG1, kappa, Human IgG1/kappa; lead variant, tested as HEK supernatant and as purified protein; also called H5K3; EPHA5 H5K3) heavy: not shown light: DIVMTQSPDSLAVSLGERATINCKASQSVDYDGDSYMNWYQQKPGKAPKLLIYGASNLESGIPDRFSGSGSGTDFTLTISRLEPEDAAVYYCQQSNEDPFTFGQGTKLEIKRTVAAPSVFIFPPSDEQLKSGTASVVCLLNNFYPREAKVQWKVDNALQSGNSQESVTEQDSKDSTYSLSSTLTLSKADYEKHKVYACEVTHQGLSSPVTKSFNRGEC
– | – | – | – | – | – | – | 0.025 µg/mL | 27300 MFI | – | – | – | – | ~0.05 µg/mL | anti-human EphA5 monoclonal murine antibody 11C12 (antibody, V domains shown, Full murine antibody; also called murine 11C12; mouse 11C12) VH: EVTLKESGGGLVQPGGSRKLSCAASGFTFSTFGIHWVRQAPEKGLEWVAYISGASTTIYYADTVKGRFTISRDNPKNTLFLQMTSLRSEDTAMYYCARYGTSFPYGLDYWGQGTSVTVSS VL: DIVMTQSPGSLAVSLGQRATISCKASQSVDYDGDSYMNWYQQKPGQPPKLLIYGASNLESGIPARFSGSGSGTDFTLNIHPVEEEDAASYYCQQSNEDPFTFGSGTKLEIK
– | – | – | – | 1.33 nM | 1 | 0.00153 s⁻¹ | 0.015 µg/mL | 35400 MFI | 1.56 nM | 0.0015 s⁻¹ | 965000 M⁻¹ s⁻¹ | – | – | chimeric VH0/VK0 antibody (murine 11C12 variable regions, human IgG1/kappa constant regions) (antibody, V domains shown, also called chimeric antibody) VH: EVTLKESGGGLVQPGGSRKLSCAASGFTFSTFGIHWVRQAPEKGLEWVAYISGASTTIYYADTVKGRFTISRDNPKNTLFLQMTSLRSEDTAMYYCARYGTSFPYGLDYWGQGTSVTVSS VL: DIVMTQSPGSLAVSLGQRATISCKASQSVDYDGDSYMNWYQQKPGQPPKLLIYGASNLESGIPARFSGSGSGTDFTLNIHPVEEEDAASYYCQQSNEDPFTFGSGTKLEIKR
